# Publication PMC2797645, “Structure of the HCMV UL16-MICB Complex Elucidates Select Binding of a Viral Immunoevasin to Diverse NKG2D Ligands” (PLoS Pathogens, 2010)
# T1: Fc-tagged ULBP1 (human, UniProt Q9BZM6 26-216)
# T1 construct: ULBP1 (RAET1I), human NKG2D ligand; Captured by its Fc on a Protein A-G chip; also called RAET1I; source: bought: R&D Systems
# T1 sequence: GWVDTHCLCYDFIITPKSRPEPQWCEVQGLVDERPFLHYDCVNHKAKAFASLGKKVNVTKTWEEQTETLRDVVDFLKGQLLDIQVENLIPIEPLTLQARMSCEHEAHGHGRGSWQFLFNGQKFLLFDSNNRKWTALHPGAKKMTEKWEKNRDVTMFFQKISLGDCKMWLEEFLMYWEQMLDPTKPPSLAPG
# T2: Fc-tagged ULBP2 (human, UniProt Q9BZM5 26-217)
# T2 construct: ULBP2 (RAET1H), human NKG2D ligand; Captured by its Fc on a Protein A-G chip; also called RAET1H; source: bought: R&D Systems
# T2 sequence: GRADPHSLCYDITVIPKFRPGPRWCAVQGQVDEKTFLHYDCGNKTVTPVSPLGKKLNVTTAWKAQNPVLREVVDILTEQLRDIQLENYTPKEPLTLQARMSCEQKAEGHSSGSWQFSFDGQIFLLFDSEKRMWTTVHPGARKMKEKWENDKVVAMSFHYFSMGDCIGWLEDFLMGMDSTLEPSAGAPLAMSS
# T3: MICB*02 ectodomain (domains α1, α2 and α3) (human, UniProt Q29980 23-298)
# T3 construct: also called complete MICB ectodomain; MICBα1α3
# T3 sequence: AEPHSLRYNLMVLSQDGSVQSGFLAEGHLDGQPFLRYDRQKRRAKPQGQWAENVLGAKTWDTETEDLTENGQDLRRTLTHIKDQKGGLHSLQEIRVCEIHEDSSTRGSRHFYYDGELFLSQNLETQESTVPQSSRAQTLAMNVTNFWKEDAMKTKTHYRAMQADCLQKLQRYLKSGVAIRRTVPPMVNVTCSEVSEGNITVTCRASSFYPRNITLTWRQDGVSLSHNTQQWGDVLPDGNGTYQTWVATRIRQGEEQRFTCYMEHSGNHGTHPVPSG
# T4: MICB*02 ectodomain (domains α1, α2 and α3) (human, UniProt Q29980 23-298)
# T4 chain: T3 sequence
# T5: MICB*02 α1α2-platform domain (MICBpf) (human)
# T5 chain: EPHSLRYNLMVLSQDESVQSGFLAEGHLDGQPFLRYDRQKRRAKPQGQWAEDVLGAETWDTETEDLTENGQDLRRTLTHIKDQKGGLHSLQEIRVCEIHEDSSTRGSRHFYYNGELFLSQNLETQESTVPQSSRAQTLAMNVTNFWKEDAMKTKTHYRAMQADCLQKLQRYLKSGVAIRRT
# B1: MICB*02 α1α2-platform domain (MICBpf) (domain or fragment)
# chain: T5 chain
# B2: UL16 ectodomain, monomeric, untagged (domain or fragment)
# chain: VDLGSKSSNSTCRLNVTELASIHPGETWTLHGMCISICYYENVTEDEIIGVAFTWQHNESVVDLWLYQNDTVIRNFSDITTNILQDGLKMRTVPVTKLYTSRMVTNLTVGRYDCLRCENGTTKIIERLYVRLGSLYPRPPGSGLAKHPSVSADEELSA
# modifications: N-linked glycans; N-acetylglucosamine seen at asparagines 35, 41, 68, 84, 95, 101 and 132 in the crystal (after EndoH)
# notes: UL16 of human cytomegalovirus, ectodomain residues 27-184; the cDNA construct also held the N-terminal signal peptide (residues 1-26), then a thrombin cleavage site and human IgG1-Fc; Residues of the thrombin site may remain at the C-terminus after cleavage; For the crystal the complex was partly deglycosylated with EndoH after complex formation; for SPR the glycosylated protein was used; also …
# How the values were obtained:
# [1] = molecular target: B2; assay: SPR; MICBpf or MICB α1-α3 covalently immobilised on a CM5 chip by amine coupling; untagged monomeric UL16 as analyte, 50 µl/min; kinetic fit (1:1 binding with mass transfer) and equilibrium fit (1:1 Langmuir isotherm); chip not regenerated; settings: both partners purified
# Fc-tagged ULBP1 = molecular target: T1, Fc-tagged ULBP1; assay: SPR; Fc-tagged ULBP ligands captured on a Protein A-G CM5 chip, diluted in HBS-EP pH 7.4 at 25°C; untagged monomeric UL16 as analyte, 50 µl/min; regeneration with 10 mM glycine pH 1.7; settings: both partners purified
# Fc-tagged ULBP2 = molecular target: T2, Fc-tagged ULBP2; assay: as above; settings: both partners purified
# [2] = molecular target: T3, MICB*02 ectodomain (domains α1, α2 and …); assay: SPR; MICBpf or MICB α1-α3 covalently immobilised on a CM5 chip by amine coupling; untagged monomeric UL16 as analyte, 50 µl/min; kinetic fit (1:1 binding with mass transfer) and equilibrium fit (1:1 Langmuir isotherm); chip not regenerated; settings: both partners purified
# [3] = molecular target: T4, MICB*02 ectodomain (domains α1, α2 and …); assay: SPR; kinetic fit
# [4] = molecular target: T5, MICB*02 α1α2-platform domain (MICBpf); assay: SPR; kinetic fit
Binder,Kd [1],Kd (Fc-tagged ULBP1),binding result (Fc-tagged ULBP2),Kd [2],koff [3],koff [4]
B1,66 nM,–,–,–,–,–
B2,–,12 nM,binds,67 nM,0.045 s⁻¹,0.054 s⁻¹
